B1: KefC WT*-GFP fusion [Escherichia coli] / itself (parent)
chain: MDSHTLIQALIYLGSAALIVPIAVRLGLGSVLGYLIAGCIIGPWGLRLVTDAESILHFAEIGVVLMLFIIGLELDPQRLWKLRAAVFGCGALQMVICGGLLGLFCMLLGLRWQVAELIGMTLALSSTAIAMQAMNERNLMVTQMGRSAFAVLLFQDIAAIPLVAMIPLLATSSASTTMGAFALSALKVAGALVLVVLLGRYVTRPALRFVARSGLREVFSAVALFLVFGFGLLLEEVGLSMAMGAFLAGVLLASSEYRHALESDIEPFKGLLLGLFFIGVGMSIDFGTLLENPLRIVILLLGFLIIKIAMLWLIARPLQVPNKQRRWFAVLLGQGSEFAFVVFGAAQMANVLEPEWAKSLTLAVALSMAATPILLVILNRLEQSSTEEAREADEIDEEQPRVIIAGFGRFGQITGRLLLSSGVKMVVLDHDPDHIETLRKFGMKVFYGDATRMDLLESAGAAKAEVLINAIDDPQTNLQLTEMVKEHFPHLQIIARARDVDHYIRLRQAGVEKPERETFEGALKTGRLALESLGLGPYEARERADVFRRFNIQMVEEMAM

In this test the parent is B1. Description: FSEC of DDM solubilized membranes after heating. Further details: unit not given here. To be noted: with itself; 10 mins at 60 °C; 1 mM AMP; read off a plot.
For the variant chain 1 R146A, the screen value was determined as 86.

Take chain 1 H259A: the screen value came out at 6.5.

On to chain 1 R543A, for which the screen value amounted to 2.5.

On to chain 1 E465A, for which the screen value amounted to 5.5.

Consider chain 1 K81A, for which the screen value amounted to 10.

Consider chain 1 N135A, for which the screen value was 89.

Take chain 1 R401A: the screen value is 74.

The record behind these values is article PMC11150392, “Structure and mechanism of the K^+/H^+ exchanger KefC” (Nature Communications, 2024).
